Results as given in article PMC10602137 (2023).

T1: GAD65 peptide on HLA-DRA*01:01 / HLA-DRB1*04:01 (human)
T1 peptide: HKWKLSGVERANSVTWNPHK

T2: influenza M protein (Influenza A MP54; also given MP74) peptide on HLA-DRA*01:01 / HLA-DRB1*04:01 (human)
T2 peptide: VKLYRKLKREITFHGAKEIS


Key:
[1] = molecular target: T1, GAD65 peptide on HLA-DRA*01:01 / …; assay: proliferation
[2] = molecular target: T2, influenza M protein (Influenza A MP54; …); assay: proliferation

Binder	binding result [1]	binding result [2]
Clone_566 (TCR) alpha TRAV29DV5 TRAJ45 CDR3: CAASRYSGGGADGLTF beta TRBV12-4 TRBJ1-1 CDR3: CASSVQGGNTEAFF	recognises	recognises
P196-1 (TCR) alpha TRAV29DV5 TRAJ45 CDR3: CAASRYSGGGADGLTF beta TRBV12-4 TRBJ1-1 CDR3: CASSLQGGNTEAFF	recognises	recognises
Clone_81 (TCR) alpha TRAV29DV5 TRAJ45 CDR3: CAASRYSGGGADGLTF beta TRBV12-4 TRBJ1-1 CDR3: CASSPQGGNTEAFF	recognises	recognises
